Measured values published in patent US20250281611A1 (BIOSCEPTRE AUST, published 2025).

Assays:
nfP2X7 CAR 1 [1] = biological target: T1, nfP2X7 CAR 1; assay: flow cytometry, CAR T cells, anti-His-FITC, EGFR+ MFI over background 0.4
T1 construct: Expressed on T cells with truncated EGFR as marker gene; also called anti-nfP2X7 receptor CAR 1; nfP2X7 targeted CAR on EGFR+ T cells
Summary of the method: (§1)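 CAR T cells incubated with BRiDGE variants at saturating concentrations; bound BRiDGE detected with anti-His-FITC by flow cytometry. EGFR marks CAR expression. Value is median fluorescence intensity on EGFR+ (CAR+) cells divided by that on EGFR− (CAR−) cells.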

nfP2X7 CAR 1 [2] = biological target: T1, nfP2X7 CAR 1; assay: flow cytometry, nfP2X7 CAR T cells (EGFR+), anti-His-FITC detection
CD33 [3] = biological target: T2, CD33 (UniProt P20138 18-364, limits assumed); assay: flow cytometry, MOLM-13 cells, anti-His-FITC detection
T2 construct: whole, on cells; also called Siglec-3; CD33 on MOLM-13 cells
Experimental: (§2) MOLM-13 cells were incubated with different CD33 BRIDGE variants at saturating concentrations. […] The MFI intensity correlates with the number of secondary antibodies bound to the CD33 BRIDGE variants that are only detected if they are bound to the MOLM-13 cells. MFI: median fluorescence intensity. BLItz: Bio-Layer interferometry (BLI) technology using HIS-tag identification tips. […] The higher the MFIR, the stronger the binding.

CD33 [4] = biological target: T2, CD33; assay: flow cytometry, MOLM-13 cells, anti-His-FITC detection, ratio to no bridge
Experimental: as §2

nfP2X7 CAR 1 [5] = biological target: T1, nfP2X7 CAR 1; assay: flow cytometry, CAR T cells, anti-His-FITC, EGFR+ over EGFR- cells
Summary of the method: as §1

T2 sequence (P20138 18-364 limits assumed): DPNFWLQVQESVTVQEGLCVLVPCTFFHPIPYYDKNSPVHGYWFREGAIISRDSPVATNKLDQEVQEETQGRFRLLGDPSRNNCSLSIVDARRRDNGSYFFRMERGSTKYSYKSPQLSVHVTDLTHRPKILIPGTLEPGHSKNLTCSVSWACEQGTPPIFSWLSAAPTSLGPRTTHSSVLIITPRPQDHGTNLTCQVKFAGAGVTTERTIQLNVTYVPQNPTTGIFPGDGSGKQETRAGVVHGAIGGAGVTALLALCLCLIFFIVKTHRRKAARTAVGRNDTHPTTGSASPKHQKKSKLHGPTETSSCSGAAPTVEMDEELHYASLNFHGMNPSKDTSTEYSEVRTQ

Binder | HisTag MFI Ratio (background 0.4) (nfP2X7 CAR 1 [1]) | MFI HisTag FITC in EGFR+ Population (nfP2X7 CAR 1 [2]) | MFI HisTag FITC (CD33 [3]) | MFIR HisTag FITC (CD33 [4]) | HisTag MFI Ratio of EGFR+/EGFR- (nfP2X7 CAR 1 [5])
CD33 BRIDGE variant B29 (Fab, Lintuzumab-based Fab bridging molecule) light: DFPGHNYTTRNILPGLNITSTFHKTSGSGKGSEPKSSDKTHTGSDIQMTQSPSSLSASVGDRVTITCRASESVDNYGISFMNWFQQKPGKAPKLLIYAASNQGSGVPSRFSGSGSGTDFTLTISSLQPDDFATYYCQQSKEVPWTFGQGTKVEIKRTVAAPSVFIFPPSDEQLKSGTASVVCLLNNFYPREAKVQWKVDNALQSGNSQESVTEQDSKDSTYSLSSTLTLSKADYEKHKVYACEVTHQGLSSPVTKSFNRGECHHHHHH heavy: QVQLVQSGAEVKKPGSSVKVSCKASGYTFTDYNMHWVRQAPGQGLEWIGYIYPYNGGTGYNQKFKSKATITADESTNTAYMELSSLRSEDTAVYYCARGRPAMDYWGQGTLVTVSSASTKGPSVFPLAPSSKSTSGGTAALGCLVKDYFPEPVTVSWNSGALTSGVHTFPAVLQSSGLYSLSSVVTVPSSSLGTQTYICNVNHKPSNTKVDKKVEPKSCHHHHHH | 4.3 | 1.73 | 5.38 | 8.03 | 3.4
CD33 BRIDGE variant B35 (Fab, Lintuzumab-based Fab bridging molecule) light: DFPGHNYTTRNILPGLNITSTFHKTSGSGKGSEPKSSDKTHTGGGGSDIQMTQSPSSLSASVGDRVTITCRASESVDNYGISFMNWFQQKPGKAPKLLIYAASNQGSGVPSRFSGSGSGTDFTLTISSLQPDDFATYYCQQSKEVPWTFGQGTKVEIKRTVAAPSVFIFPPSDEQLKSGTASVVCLLNNFYPREAKVQWKVDNALQSGNSQESVTEQDSKDSTYSLSSTLTLSKADYEKHKVYACEVTHQGLSSPVTKSFNRGECHHHHHH heavy: QVQLVQSGAEVKKPGSSVKVSCKASGYTFTDYNMHWVRQAPGQGLEWIGYIYPYNGGTGYNQKFKSKATITADESTNTAYMELSSLRSEDTAVYYCARGRPAMDYWGQGTLVTVSSASTKGPSVFPLAPSSKSTSGGTAALGCLVKDYFPEPVTVSWNSGALTSGVHTFPAVLQSSGLYSLSSVVTVPSSSLGTQTYICNVNHKPSNTKVDKKVEPKSCHHHHHH | 5.4 | 2.15 | 6.62 | 9.88 | 3.8
CD33 BRIDGE variant B36 (Fab, Lintuzumab-based Fab bridging molecule) light: DFPGHNYTTRNILPGLNITSTFHKTSGSGKGGGGSEPKSSDKTHTGGGGSDIQMTQSPSSLSASVGDRVTITCRASESVDNYGISFMNWFQQKPGKAPKLLIYAASNQGSGVPSRFSGSGSGTDFTLTISSLQPDDFATYYCQQSKEVPWTFGQGTKVEIKRTVAAPSVFIFPPSDEQLKSGTASVVCLLNNFYPREAKVQWKVDNALQSGNSQESVTEQDSKDSTYSLSSTLTLSKADYEKHKVYACEVTHQGLSSPVTKSFNRGECHHHHHH heavy: QVQLVQSGAEVKKPGSSVKVSCKASGYTFTDYNMHWVRQAPGQGLEWIGYIYPYNGGTGYNQKFKSKATITADESTNTAYMELSSLRSEDTAVYYCARGRPAMDYWGQGTLVTVSSASTKGPSVFPLAPSSKSTSGGTAALGCLVKDYFPEPVTVSWNSGALTSGVHTFPAVLQSSGLYSLSSVVTVPSSSLGTQTYICNVNHKPSNTKVDKKVEPKSCHHHHHH | 4.1 | 1.65 | 6.72 | 10 | 3.3
CD33 BRIDGE variant B31 (Fab, Lintuzumab-based Fab bridging molecule) light: DFPGHNYTTRNILPGLNITSEPKSSDKTHTGGGGSDIQMTQSPSSLSASVGDRVTITCRASESVDNYGISFMNWFQQKPGKAPKLLIYAASNQGSGVPSRFSGSGSGTDFTLTISSLQPDDFATYYCQQSKEVPWTFGQGTKVEIKRTVAAPSVFIFPPSDEQLKSGTASVVCLLNNFYPREAKVQWKVDNALQSGNSQESVTEQDSKDSTYSLSSTLTLSKADYEKHKVYACEVTHQGLSSPVTKSFNRGECHHHHHH heavy: QVQLVQSGAEVKKPGSSVKVSCKASGYTFTDYNMHWVRQAPGQGLEWIGYIYPYNGGTGYNQKFKSKATITADESTNTAYMELSSLRSEDTAVYYCARGRPAMDYWGQGTLVTVSSASTKGPSVFPLAPSSKSTSGGTAALGCLVKDYFPEPVTVSWNSGALTSGVHTFPAVLQSSGLYSLSSVVTVPSSSLGTQTYICNVNHKPSNTKVDKKVEPKSCHHHHHH | 3.4 | 1.34 | 7.09 | 10.6 | 3
CD33 BRIDGE variant B32 (Fab, Lintuzumab-based Fab bridging molecule) light: DFPGHNYTTRNILPGLNITSGSEPKSSDKTHTGGGGSDIQMTQSPSSLSASVGDRVTITCRASESVDNYGISFMNWFQQKPGKAPKLLIYAASNQGSGVPSRFSGSGSGTDFTLTISSLQPDDFATYYCQQSKEVPWTFGQGTKVEIKRTVAAPSVFIFPPSDEQLKSGTASVVCLLNNFYPREAKVQWKVDNALQSGNSQESVTEQDSKDSTYSLSSTLTLSKADYEKHKVYACEVTHQGLSSPVTKSFNRGECHHHHHH heavy: QVQLVQSGAEVKKPGSSVKVSCKASGYTFTDYNMHWVRQAPGQGLEWIGYIYPYNGGTGYNQKFKSKATITADESTNTAYMELSSLRSEDTAVYYCARGRPAMDYWGQGTLVTVSSASTKGPSVFPLAPSSKSTSGGTAALGCLVKDYFPEPVTVSWNSGALTSGVHTFPAVLQSSGLYSLSSVVTVPSSSLGTQTYICNVNHKPSNTKVDKKVEPKSCHHHHHH | 4 | 1.59 | 6.69 | 9.99 | 3.3

Continued, values first:

HisTag MFI Ratio (background 0.4) (nfP2X7 CAR 1 [1]) | MFI HisTag FITC in EGFR+ Population (nfP2X7 CAR 1 [2]) | MFI HisTag FITC (CD33 [3]) | MFIR HisTag FITC (CD33 [4]) | HisTag MFI Ratio of EGFR+/EGFR- (nfP2X7 CAR 1 [5]) | Binder
4.1 | 1.63 | 6.29 | 9.39 | 3.3 | CD33 BRIDGE variant B30 (Fab, Lintuzumab-based Fab bridging molecule) light: DFPGHNYTTRNILPGLNITSTFHKTSGSGKGGGGSEPKSSDKTHTGSDIQMTQSPSSLSASVGDRVTITCRASESVDNYGISFMNWFQQKPGKAPKLLIYAASNQGSGVPSRFSGSGSGTDFTLTISSLQPDDFATYYCQQSKEVPWTFGQGTKVEIKRTVAAPSVFIFPPSDEQLKSGTASVVCLLNNFYPREAKVQWKVDNALQSGNSQESVTEQDSKDSTYSLSSTLTLSKADYEKHKVYACEVTHQGLSSPVTKSFNRGECHHHHHH heavy: QVQLVQSGAEVKKPGSSVKVSCKASGYTFTDYNMHWVRQAPGQGLEWIGYIYPYNGGTGYNQKFKSKATITADESTNTAYMELSSLRSEDTAVYYCARGRPAMDYWGQGTLVTVSSASTKGPSVFPLAPSSKSTSGGTAALGCLVKDYFPEPVTVSWNSGALTSGVHTFPAVLQSSGLYSLSSVVTVPSSSLGTQTYICNVNHKPSNTKVDKKVEPKSCHHHHHH
4.2 | 1.69 | 6.96 | 10.4 | 3.4 | CD33 BRIDGE variant B33 (Fab, Lintuzumab-based Fab bridging molecule) light: DFPGHNYTTRNILPGLNITSGGGGSEPKSSDKTHTGGGGSDIQMTQSPSSLSASVGDRVTITCRASESVDNYGISFMNWFQQKPGKAPKLLIYAASNQGSGVPSRFSGSGSGTDFTLTISSLQPDDFATYYCQQSKEVPWTFGQGTKVEIKRTVAAPSVFIFPPSDEQLKSGTASVVCLLNNFYPREAKVQWKVDNALQSGNSQESVTEQDSKDSTYSLSSTLTLSKADYEKHKVYACEVTHQGLSSPVTKSFNRGECHHHHHH heavy: QVQLVQSGAEVKKPGSSVKVSCKASGYTFTDYNMHWVRQAPGQGLEWIGYIYPYNGGTGYNQKFKSKATITADESTNTAYMELSSLRSEDTAVYYCARGRPAMDYWGQGTLVTVSSASTKGPSVFPLAPSSKSTSGGTAALGCLVKDYFPEPVTVSWNSGALTSGVHTFPAVLQSSGLYSLSSVVTVPSSSLGTQTYICNVNHKPSNTKVDKKVEPKSCHHHHHH
3.3 | 1.31 | 6.98 | 10.4 | 3 | CD33 BRIDGE variant B34 (Fab, Lintuzumab-based Fab bridging molecule) light: DFPGHNYTTRNILPGLNITSTFHKTSGSGKEPKSSDKTHTGGGGSDIQMTQSPSSLSASVGDRVTITCRASESVDNYGISFMNWFQQKPGKAPKLLIYAASNQGSGVPSRFSGSGSGTDFTLTISSLQPDDFATYYCQQSKEVPWTFGQGTKVEIKRTVAAPSVFIFPPSDEQLKSGTASVVCLLNNFYPREAKVQWKVDNALQSGNSQESVTEQDSKDSTYSLSSTLTLSKADYEKHKVYACEVTHQGLSSPVTKSFNRGECHHHHHH heavy: QVQLVQSGAEVKKPGSSVKVSCKASGYTFTDYNMHWVRQAPGQGLEWIGYIYPYNGGTGYNQKFKSKATITADESTNTAYMELSSLRSEDTAVYYCARGRPAMDYWGQGTLVTVSSASTKGPSVFPLAPSSKSTSGGTAALGCLVKDYFPEPVTVSWNSGALTSGVHTFPAVLQSSGLYSLSSVVTVPSSSLGTQTYICNVNHKPSNTKVDKKVEPKSCHHHHHH
